This data set is described as follows: label from the status in PepcDB records.
As for “MRTSAFVPVLLFALLGALVGCSGGTELTYSGPEEAYKKGVAEMEEGDHQQAIRFFRAVFEYGRGNEWAPDARFKLAMAQRGLNKHLVAANEFQRFTQLYRNDELLPRAEFERANSYYLRSPSYRLDQSDSEQAISLFRLFIDRHPNHELVPEAEEKINELRAKLARKKYEAGRLYEQRDMWQAATTVYERAFDQYPDTPWADDALLGAVRTYIRYADRSVESKQAERYQKAIENYNRLTQLFPESTLLGRAEDLYSEAREKLDRAQAQQGEQSLAQEDASSGSN”, the protein production result is “failed”.
In the case of “MRTTAAEEAGLETETARRRFSRASLVNVAGNAVKILVEGAVGLAFGSVALLADAAHSVADLVASAVVLVWGRSVYTDPDENHPHGHQRVEPLAALFVGSLIVLLGLNLFYESATGLVAGPEVQFHPLLVGALLFAMADMYLLYWYTTHINESVGSSALEALAIDCRNDIYTTIAALCGVIGVFFGYPLFDAVAGGLVSVLVVYQGFEISRENVSYLVGASPSDQQRQRVVETLTDHPAVHGAHDVAVFYDGTDIEVEAHVEVDGELTLVEAHDIETELVSALRSLESVGDVHLHLDPAGIGEWKDAAVNEQRGPETQTGSPKQ” it was “failed”; in that of “MRTVLNILNFVLGGFATTLAWLLATLVSIVLIFTLPLTRSCWEITKLSLFPYGNEAIHVDELNPAAKSVLMNTGGTLLNIFWLLFFGWWLCLMHIASGIAQCVTIIGIPVGIANFKIAAIALWPVGRRVVSVETARAAREANARRRFE”, “failed”.
In the case of “MRTVLNILNFVLGGFATTLGWLLATLVSIVLIFTLPLTRSCWEITKLSLVPYGNEAIHVDELNPAGKNVLLNTGGTVLNIFWLIFFGWWLCLMHIATGIAQCISIIGIPVGIANFKIAAIALWPVGRRVVSVETAQAAREANARRRFE” it was “failed”; in that of “MRTVTGAILAMNLEVKDFVHRDVEEADRRLREIGARKILLQLPDGLKPYAFDYFTYLSQRYDVILSSSPVYGACDIGPSYLYDRVDAIVQVGHSIMRNVKYPRPVIFIEHYRTVDVEDINTEALKNYRRIGLIYSIQYRPVADRVKRILESKGFEVIIGRSDRRMTYDGQVLGCNFSSVHSVEAEVEAFVIVSTGSFHALGSQISTERPVFLLDLNEMSLRSMEKEADTFIRKRYAQIYRAMDAKRICFLVDTRIGQRREKLARMLMDRARDLGKEAVLAYTDNISDQDIQNMGCDLAVYTGCPRVPIDDQDRFTVPVLTPAEFSMAFFKSSKRYVLDEIVSVDEFTDQLEHHHHHH”, “failed”.
With “MRVARLFRFPVKGFPAEEIPEADVRTGRGIRGDRVAAFTNGSLDIPDDSWHRYSAFTVLKNDTDLQKWQVELDLAEAADSSQPAVADPSATVTLTSPQNETTTFRTDDRDTRATSADFLSARIPPQGDFPRALSVADQGMFDSQAAGVSIINPATVAAISQTADGQAALAPGETELDPLRFRGNVLVDGLAPFEEFALIGKIVRLGGVRLAITQAIERCPATTVNPTTTAVDVNVPRVLASACGHLHCGVYGRILESGLVSTGDEIEIEGDAPRELVKTARTPRFMTVLGSQQICNDIVEVSLRDDQGWIREFDEPGTNLRVHLDLGEPFWRTYTITDVSDDIVSIAVRTQGKGSRAVAELAAGQSVLASGPHGTMTANRVFGGTTALVTAGIGITPSLGLMRGAELSGTEKIKLFHVDRDHRTACLWDRLQKRAHSRQIPVETHHRDTASQGRPGHADLVDWLAGCDNVMVCGPADFTRAVLDASAEAGVPAVHQEIFASPNTGMSEAIAQCSPAEVTLENSGTSFLWEPQQGTLLEALEARGLRADNSCRGGSCGTCAVSLAAGSVIYPVEPAARIAADEVLVCSAVPSGPISLGILEHHHHHH” the entry was “failed”; with “MRVDIVPVGDVPAHVKRQASSSLRSVYDCEVVVASEQDVPTAAYDEARSQYRAAEFIDTATRATSGDKTIAITPHDLFYRRRNYVFGLAYLDGRGCVVSTYRLQTSSDGGFSNRSSSDVFDDRVRKEVVHELGHTLGLEHCDNNRCAMNFSPTVREVDRKEENLCGSCQRTVFLEHHHHHH”, “not failed”; with “MRVEDVMVTDVDTIDITASLEDVLRNYVENAKGSSVVVKEGVRVGIVTTWDVLEAIAEGDDLAEVKVWEVMERDLVTISPRATIKEAAEKMVKNVVWRLLVEEDDEIIGVISATDILRAKMAKRY”, “not failed”.
Consider “MRVEVFPVEGLPLIKEGDDLAELISSRVRFEDGDVLVVCSTVISKAEGRIRRLEEFNPSERAKEIAARIGKPAEFVQAVLEESEEVLLDFPFLLVKAKFGNVCVNAGIDASNVEEGSLLLPPLDPDGSAEKLRRRILELTGKRVGVIITDTNGRCFRRGVVGFAIGISGVKAMKDWIGRKDLYGRELEVTVECVADEIAAFANLLMGEGGDGIPAVVVRGLNVAGEGSMEEIYRSEEEDVIRRCLKRCL”, for which the protein production entry is listed as “not failed”.
With “MRVFPVTLGPLQENAYLVETGEGPVLIDPGDEPEKLLALFQTTGLIPLAILLTHAHFDHVGAVAPLVEALDLPVYLHPLDLPLYEGADLAARAWGLAIPKPPLPVRPLEEGMRLFGFQVLHLPGHSPGHVAFYDPEGAQVFSGDLLFRGSVGRYDLPGADPKALFASLKRLLSLPPETRVHPGHGPGTTLGLEARTNPFLTGLEWEA” the entry was “not failed”; with “MRVFVTGASGWIGSAVVPELIRAGHQVVGLARSDASAEALTAAGAGVVRGTLDDLDVLRRAAADSDGVVHLAFKHDIAFSGDFKGAGEADRRAVEVIGEALAGSDRPFTIASGTPAIPGHVATEHDGHDADRAAAARGDAQHIRAVTAELTVSLSARGVRSSVVRLAPTNHGEGDNGFVPALIGIARGKGVSGYIGDGTNRWSAAHRLDSARLFRLALEKAPAGSTLHAVAEEGLPVRDLAEVVGRQLGLPVVSVPAAEAEAHFGWLAGPLAANRAASSVLTRELLGWEPVQPGLVEDLEQGHYFK”, “failed”.
With “MRVLVTGGAGFIGSHIVEDLLARGLEVAVLDNLATGKRENVPKGVPFFRVDLRDKEGVERAFREFRPTHVSHQAAQASVKVSVEDPVLDFEVNLLGGLNLLEACRQYGVEKLVFASTGGAIYGEVPEGERAEETWPPRPKSPYAASKAAFEHYLSVYGQSYGLKWVSLRYGNVYGPRQDPHGEAGVVAIFAERVLKGLPVTLYARKTPGDEGCVRDYVYVGDVAEAHALALFSLEGIYNVGTGEGHTTREVLMAVAEAAGKAPEVQPAPPRPGDLERSVLSPLKLMAHGWRPKVGFQEGIRLTVDHFRGAV” the entry was “not failed”; with “MRVVALVPGGIGDQILFFPTLDDLKRYYPNAQLDVVVEPRSKAAYRVSKSVNDILTFDYKDRNSLADWGNLVGTIRDREYDVVITVGQSWLVGLFLWLTGIPTRIGYQGKGRSFLTKTVPFKPSQYAAAVYHDLLAPIGITTPTPELAVNVPKPDIDWANSEQKRLGVNETGYVLIYGGSSWVSQPQALETIYPAENWQEIIQDFRQKQPDLPVVVIQGPDDEQFVRSLRDYSLDIKVTSPDNVGKLTAMIAGANLMLTTDSAPLHLSVAVQTYTIALFGSTDPVKLLPNSDKLLGIKSSTGRVADILPKAVLEKVWGGLEHHHHHH”, “not failed”; with “MRWGSWLALAGLNAFLSIASGAFAAHALSALGDAHGVGLMEKSARYQMYGAFALVVCAWLAERGVGGRLVAVAGWLHLAGVVLFCGALSAIALLGWPAGPVAPLGGSAMLLGWGVLAWIGLRARRGA”, “failed”.
With “MRWLLLLLLLAACRAQGLPEPYATLERGGKEALRQVALEAQGYAGLLAGWLLVGEEDLPLAERAEYAWRYALFLEEVRAFEPGWEAEAAWRVAAPLLEAAEDARAFSAWARLLPEEEAVQALLRLGQGERLWEALFRGRAYEPLLKALPEGERPDLRAQALYRLGRYEEALPHYRAWAEADPRGYLGLGYALWRLGRREEALQAFARYDHPESRLAQGRLLEGMGRVEEALARYLASTPEGLWRATALLERLGRKEEALGVYLRLAQGESPYADDAALRAYLLAGELGNGEARQEAYARLEGGLGLLVGKRPSPPPQALEAPPAPLTPLVEALVRAGKAAWARGEVRYALWRRPKDWPALVPLLYRLGAYREGIRAAWPTALAYPRAYREWVEGYAGKEGLDPDLLFALLHVESRFDPKAVSPTGALGLAQFLRSTWADVARMLGEPPADPFDPESAIRYAARYLRWLMERCAAFSGVERLACAVTAYNGGIGYTLRGIAREGGLYAFLRFQERDEPREYLAKVLSAYAAYKAIP” the entry was “failed”.
Consider “MRWRADFLSAWAEALLRKAGADEPSAKAVAWALVEADLRGVGSHGLLRLPVYVRRLEAGLVNPSPTLPLEERGPVALLDGEHGFGPRVALKAVEAAQSLARRHGLGAVGVRRSTHFGMAGLYAEKLAREGFVAWVTTNAEPDVVPFGGREKALGTNPLAFAAPAPQGILVADLATSESAMGKVFLAREKGERIPPSWGVDREGSPTDDPHRVYALRPLGGPKGYALALLVEVLSGVLTGAGVAHGIGRMYDEWDRPQDVGHFLLALDPGRFVGKEAFLERMGALWQALKATPPAPGHEEVFLPGELEARRRERALAEGMALPERVVAELKALGERYGVPWRDDA”, for which the protein production result is reported as “not failed”.
With “MRYAAVLVEVGGTHRCLPLDSDGDLNIVASFDRRGKHIYTGNAKGKILVLDAETFEVVASFRIIVGTSSATAVKSIEFARRGDAFLINTSDRVIRVYDSKEIIILGKDGEPEPIQKLQDLVNKTTWKKCCFSGDGEYICAGSARQHALYIWEKSIGNLVKILHGTKGELHKQKRIRSFLERLAKDVPRIKNHLTLPNRFLFSSYRYYIRTI” the entry was “failed”.
With “MRYADRVAGISWETIEEVRRRLKERPALHFIAGEFVPSESGETFPSLDPATNEVLGVAARGGEREVDRAAKAAHEAFQRWSRTKAKERKRYLLRIAELIEKHADELAVMECLDAGQVLRIVRAQVARAAENFAFYAEYAEHAMEDRTFPVDRDWLYYTVRVPAGPVGIITPWNAPLMLSTWRIAPALAFGNTVVLKPAEWSPFTATKLAEILKEADLPPGVFNLVQGFGEEAGAALVAHPLVPLLTLTGETETGKIVMRNAADHLKRLSPELGGKSPALVFADADLERALDAVVFQIFSFNGERCTASSRLLVEEKIFEDFVGKVVERARAIRVGHPLDPETEVGPLIHPEHLQRVLGYVEAGKREGARLLVGGERAKTSFRGEDLSRGNYLLPTVFVGENHMKIAQEEIFGPVLVAIPFKDEEEALRKANDTKYGLAAYVFTRDLERAHRLALELEAGMVYLNSHNVRHLPTPFGGVKGSGDRREGGTYALDFYTDLKTIALPLRPPHVPKFGK”, the protein production result is “not failed”.
In the case of “MRYFSTDSPEVKTIVAQDSRLFQFIEIAGEVQLPTKPNPFQSLVSSIVEQQLSIKAASAIYGRVEQLVGGALEKPEQLYRVSDEALRQAGVSKRKIEYIRHVCEHVESGRLDFTELEGAEATTVIEKLTAIKGIGQWTAEMFMMFSLGRLDVLSVGDVGLQRGAKWLYGNGEGDGKKLLIYHGKAWAPYETVACLYLWKAAGTFAEEYRSLEELLHHGNQC” it was “not failed”.
With “MRYGFMKVAAAVPFVKVADCEYNIERIDRMVHEADAKGVEIMTFPELSITGYSCGDLFFQPFLQERANEALCRLVEQTANTTVMVIVGMPLRVEEKLFNSAVVFQQGKILGAIPKTYLPNYREFQEARWFSPAHTLQYSTISIGQHSVPIGRNLIFKCGTVGVGIEICEDMWTPFTPGTRLCLYGAEVIFNLSSSNENAGKHSYLRSLISGLSSQGICAYVYASSGYGESSTDIVFTGKAFIAEAGEIVEEMERFRYEERMIISDIDVSRIQTERLINSSFKAAVTFHTHDEKFNQLPFKLRSRQESLPMTRRVDRNPFMPEDKDRKERSREMINIQVCGLMQRLLHMGAEHAVIGISGGLDSALALIVCAQAFDRLDLPRKNIIAVTMPGFGTSDRTYRNAFALMEAIGVTIKEIDIKEACLRHFEAIGHNPEVQDTTFENTQARERTQILMNLANIYNAPVIGTGDLSELALGWVTYNGDHMSMYAVNAGIAKTTVQILVDHIAHSGWLDEAASAVLLDIVRTPISPELKPVGQDGNISQKTEDLVGPYELHDFFIYHFLHNEYKPSKIYYLAGVAFKGIYTKAEIKKWMMVFFRRFFAQQYKRNCMPDGPKVSCISLSPRGAWRMASDASSALWLDEIAKFETDLEHHHHHH” the entry was “failed”.
